The text below walks through data of FireProtDB (doi:10.1016/s0022-2836(02)00630-7).

A word on the Tm: it is the temperature at the midpoint of the melting transition.

Sequences and labels used below:
B1: Phosphocarrier protein HPr, P08877 (parent)
chain: MAQKTFKVTADSGIHARPATVLVQTASKYDADVNLEYNGKTVNLKSIMGVMSLGIAKGAEITISASGADENDALNALEETMKSEGLGE

Variants of B1 are the subject of this data set. The note with it: Bacillus subtilis (strain 168), pH 7, CD, Potassium phosphate 10 mM, reversible: yes, structure 1KKM, whole UniProt chain shown; for ddG of mutation (higher = less stable) / denaturant m value / denaturant midpoint (higher = more stable): 25 °C.

In the case of G49E, under “Thermal”, the “ddG of mutation (higher = less stable)” value is -1.4 kcal/mol; the Tm amounted to 78.1 °C; the “change of melting temperature, mutant - wild type (higher = more stable)” value (from here on “change of melting temperature, mutant”) was found to be 5.5 °C; the “unfolding enthalpy (van 't Hoff)” value was determined as 83.8 kcal/mol. For the same variant, under “Urea”, the “ddG of mutation (higher = less stable)” value was -1.2 kcal/mol, the denaturant m value was 1 kcal/mol/M and the “denaturant midpoint (higher = more stable)” value (from here on “denaturant midpoint”) is 5.77 M.

With G49K, for the setting “Thermal”, the “ddG of mutation (higher = less stable)” value was 1 kcal/mol; the Tm worked out at 68.1 °C; the “change of melting temperature, mutant” value was -4.5 °C; the “unfolding enthalpy (van 't Hoff)” value stood at 73.9 kcal/mol. For the same variant, for the setting “Urea”, the “ddG of mutation (higher = less stable)” value was 0.8 kcal/mol, the denaturant m value was 1.13 kcal/mol/M and the “denaturant midpoint” value was found to be 3.84 M.

For the variant G49A, where the note is “Thermal”, the “ddG of mutation (higher = less stable)” value is -0.8 kcal/mol; the Tm was 75.8 °C; the “change of melting temperature, mutant” value was 3.2 °C; the “unfolding enthalpy (van 't Hoff)” value came to 82.4 kcal/mol. For the setting “Urea”, the “ddG of mutation (higher = less stable)” value was -0.9 kcal/mol, the denaturant m value worked out at 1.01 kcal/mol/M and the “denaturant midpoint” value worked out at 5.44 M.
